Experimental data taken from the RNAGym collection of RNA variant scans (doi:10.1093/molbev/msab373).

B1: Azoarcus group I ribozyme (parent)
chain: GUGCCUUGCGCCGGGAAACCACGCAAGGGAUGGUGUCAAAUUCGGCGAAACCUAAGCGCCCGCCCGGGCGUAUGGCAACGCCGAGCCAAGCUUCGGCGCCUGCGCCGAUGAAGGUGUAGAGACUAGACGGCACCCACCUAAGGCAAACGCUAUGGUGAAGGCAUAGUCCAGGGAGUGGCGAAAGUCACACAAACCGG

Variants of: B1
Experiment: reverse-splicing fitness (ratio to wild type); higher = more active; in vitro selection; Mg2+ level not given
How it was run: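 An in vitro group I ribozyme library with randomized positions was T7-transcribed and gel-purified. In triplicate, 10 pmol RNA in EPPS pH 7.5 was reacted with 50 pmoles of a 30-nt RNA substrate for 1 h at 37 °C across several added MgCl2 levels (1–48 mM), then stopped with EDTA. Products were reverse transcribed from a substrate-complementary primer, PCR-amplified and sequenced (HiSeq 4000). Fitness is a variant's read proportion after selection over that before, normalised to wild type.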
With C82U A111U A120G C169A U176A the reverse-splicing fitness was 0.0178.
With C82U A111U A120G C169A U176C the reverse-splicing fitness was 0.0221.
With C82U A111U A120G C169A U176G the reverse-splicing fitness was 0.00417.
With C82U A111U A120G C169G the reverse-splicing fitness was 0.01.
With C82U A111U A120G C169G U176A the reverse-splicing fitness was 0.0203.
C82U A111U A120G C169G U176C showed a reverse-splicing fitness of 0.0225.
Work on C82U A111U A120G C169G U176G yielded a reverse-splicing fitness of 0.00437.
In the case of C82U A111U A120G C169U, the reverse-splicing fitness is reported as 0.0086.
Work on C82U A111U A120G C169U U176A yielded a reverse-splicing fitness of 0.0215.
Work on C82U A111U A120G C169U U176C yielded a reverse-splicing fitness of 0.0161.
C82U A111U A120G C169U U176G showed a reverse-splicing fitness of 0.00594.
For C82U A111U A120G U176A, the reverse-splicing fitness was 0.0123.
With C82U A111U A120G U176C the reverse-splicing fitness was 0.0165.
C82U A111U A120G U176G gave a reverse-splicing fitness of 0.00474.
Work on C82U A111U A120U yielded a reverse-splicing fitness of 0.0242.
C82U A111U A120U A145C gave a reverse-splicing fitness of 0.0211.
In the case of C82U A111U A120U A145C C150A, the reverse-splicing fitness is reported as 0.00466.
In the case of C82U A111U A120U A145C C150A C169A, the reverse-splicing fitness is reported as 0.00214.
In the case of C82U A111U A120U A145C C150A C169A U176A, the reverse-splicing fitness is reported as 0.00203.
Variant C82U A111U A120U A145C C150A C169A U176C has a reverse-splicing fitness of 0.00217.
With C82U A111U A120U A145C C150A C169A U176G the reverse-splicing fitness was 0.00264.
Variant C82U A111U A120U A145C C150A C169G has a reverse-splicing fitness of 0.00215.
C82U A111U A120U A145C C150A C169G U176A showed a reverse-splicing fitness of 0.00269.
For C82U A111U A120U A145C C150A C169G U176C, the reverse-splicing fitness was 0.00255.
C82U A111U A120U A145C C150A C169G U176G gave a reverse-splicing fitness of 0.00189.
C82U A111U A120U A145C C150A C169U showed a reverse-splicing fitness of 0.00254.
Work on C82U A111U A120U A145C C150A C169U U176A yielded a reverse-splicing fitness of 0.0025.
C82U A111U A120U A145C C150A C169U U176C showed a reverse-splicing fitness of 0.00269.
C82U A111U A120U A145C C150A C169U U176G gave a reverse-splicing fitness of 0.00213.
With C82U A111U A120U A145C C150A U176A the reverse-splicing fitness was 0.00354.
Variant C82U A111U A120U A145C C150A U176C has a reverse-splicing fitness of 0.00387.
C82U A111U A120U A145C C150A U176G gave a reverse-splicing fitness of 0.00245.
Variant C82U A111U A120U A145C C150G has a reverse-splicing fitness of 0.00588.
Work on C82U A111U A120U A145C C150G C169A yielded a reverse-splicing fitness of 0.00266.
C82U A111U A120U A145C C150G C169A U176A gave a reverse-splicing fitness of 0.00264.
In the case of C82U A111U A120U A145C C150G C169A U176C, the reverse-splicing fitness is reported as 0.00247.
C82U A111U A120U A145C C150G C169A U176G gave a reverse-splicing fitness of 0.00281.
Work on C82U A111U A120U A145C C150G C169G yielded a reverse-splicing fitness of 0.00307.
Variant C82U A111U A120U A145C C150G C169G U176A has a reverse-splicing fitness of 0.00245.
For C82U A111U A120U A145C C150G C169G U176C, the reverse-splicing fitness was 0.00216.
Work on C82U A111U A120U A145C C150G C169G U176G yielded a reverse-splicing fitness of 0.00175.
In the case of C82U A111U A120U A145C C150G C169U, the reverse-splicing fitness is reported as 0.00284.
Variant C82U A111U A120U A145C C150G C169U U176A has a reverse-splicing fitness of 0.00255.
C82U A111U A120U A145C C150G C169U U176C showed a reverse-splicing fitness of 0.0022.
C82U A111U A120U A145C C150G C169U U176G showed a reverse-splicing fitness of 0.00218.
C82U A111U A120U A145C C150G U176A gave a reverse-splicing fitness of 0.00287.
Work on C82U A111U A120U A145C C150G U176C yielded a reverse-splicing fitness of 0.00408.
With C82U A111U A120U A145C C150G U176G the reverse-splicing fitness was 0.00213.
C82U A111U A120U A145C C150U gave a reverse-splicing fitness of 0.00815.
In the case of C82U A111U A120U A145C C150U C169A, the reverse-splicing fitness is reported as 0.0022.
Work on C82U A111U A120U A145C C150U C169A U176A yielded a reverse-splicing fitness of 0.00217.
With C82U A111U A120U A145C C150U C169A U176C the reverse-splicing fitness was 0.00253.
With C82U A111U A120U A145C C150U C169A U176G the reverse-splicing fitness was 0.00178.
Variant C82U A111U A120U A145C C150U C169G has a reverse-splicing fitness of 0.00276.
For C82U A111U A120U A145C C150U C169G U176A, the reverse-splicing fitness was 0.00283.
With C82U A111U A120U A145C C150U C169G U176C the reverse-splicing fitness was 0.00287.
Variant C82U A111U A120U A145C C150U C169G U176G has a reverse-splicing fitness of 0.00171.
In the case of C82U A111U A120U A145C C150U C169U, the reverse-splicing fitness is reported as 0.00288.
In the case of C82U A111U A120U A145C C150U C169U U176A, the reverse-splicing fitness is reported as 0.00211.
C82U A111U A120U A145C C150U C169U U176C gave a reverse-splicing fitness of 0.00256.
Variant C82U A111U A120U A145C C150U C169U U176G has a reverse-splicing fitness of 0.00212.
With C82U A111U A120U A145C C150U U176A the reverse-splicing fitness was 0.00399.
C82U A111U A120U A145C C150U U176C gave a reverse-splicing fitness of 0.00469.
In the case of C82U A111U A120U A145C C150U U176G, the reverse-splicing fitness is reported as 0.0026.
Work on C82U A111U A120U A145C C169A yielded a reverse-splicing fitness of 0.00225.
With C82U A111U A120U A145C C169A U176A the reverse-splicing fitness was 0.00226.
For C82U A111U A120U A145C C169A U176C, the reverse-splicing fitness was 0.00199.
Variant C82U A111U A120U A145C C169A U176G has a reverse-splicing fitness of 0.00173.
In the case of C82U A111U A120U A145C C169G, the reverse-splicing fitness is reported as 0.00316.
With C82U A111U A120U A145C C169G U176A the reverse-splicing fitness was 0.00238.
Work on C82U A111U A120U A145C C169G U176C yielded a reverse-splicing fitness of 0.00221.
Work on C82U A111U A120U A145C C169G U176G yielded a reverse-splicing fitness of 0.0016.
Work on C82U A111U A120U A145C C169U yielded a reverse-splicing fitness of 0.00314.
C82U A111U A120U A145C C169U U176A gave a reverse-splicing fitness of 0.00247.
Work on C82U A111U A120U A145C C169U U176C yielded a reverse-splicing fitness of 0.0022.
Work on C82U A111U A120U A145C C169U U176G yielded a reverse-splicing fitness of 0.00177.
In the case of C82U A111U A120U A145C U176A, the reverse-splicing fitness is reported as 0.00627.
C82U A111U A120U A145C U176C showed a reverse-splicing fitness of 0.00756.
Work on C82U A111U A120U A145C U176G yielded a reverse-splicing fitness of 0.00259.
C82U A111U A120U A145G showed a reverse-splicing fitness of 0.0251.
With C82U A111U A120U A145G C150A the reverse-splicing fitness was 0.00852.
With C82U A111U A120U A145G C150A C169A the reverse-splicing fitness was 0.00571.
For C82U A111U A120U A145G C150A C169A U176A, the reverse-splicing fitness was 0.0063.
